Where only a bound is given, the exact number is not on record here.

For this test, the target named is T1, hepatocyte nuclear factor 4α (HNF4α) (human (endogenous in HepG2), UniProt P41235 1-474).
T1 sequence (looked up): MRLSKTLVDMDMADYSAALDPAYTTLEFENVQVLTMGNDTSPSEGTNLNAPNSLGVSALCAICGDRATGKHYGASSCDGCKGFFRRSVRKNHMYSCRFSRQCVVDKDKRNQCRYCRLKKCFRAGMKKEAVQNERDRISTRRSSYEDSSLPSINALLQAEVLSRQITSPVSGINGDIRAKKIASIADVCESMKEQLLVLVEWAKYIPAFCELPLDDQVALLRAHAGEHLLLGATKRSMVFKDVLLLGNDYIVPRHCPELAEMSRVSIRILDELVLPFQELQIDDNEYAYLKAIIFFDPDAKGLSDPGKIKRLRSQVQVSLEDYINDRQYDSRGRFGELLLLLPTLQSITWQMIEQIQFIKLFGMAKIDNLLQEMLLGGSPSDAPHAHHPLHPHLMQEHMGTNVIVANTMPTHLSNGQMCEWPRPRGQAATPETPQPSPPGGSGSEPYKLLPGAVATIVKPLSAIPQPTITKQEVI
In words: cell-based or functional assay.

B1: lipin 1β (924 amino acid form of mouse lipin 1), HA-tagged (natural protein, UniProt Q91ZP3 1-924, looked up)
chain: MNYVGQLAGQVFVTVKELYKGLNPATLSGCIDIIVIRQPNGSLQCSPFHVRFGKMGVLRSREKVVDIEINGESVDLHMKLGDNGEAFFVQETDNDQEIIPMYLATSPILSEGAARMESQLKRNSVDRIRCLDPTTAAQGLPPSDTPSTGSLGKKRRKRRRKAQLDNLKRDDNVNSSEDEDMFPIEMSSDEDTAPMDGSRTLPNDVPPFQDDIPKENFPSISTHPQSASYPSSDREWSPSPSSLVDCQRTPPHLAEGVLSSSCPLQSCHFHASESPSGSRPSTPKSDSELVSKSADRLTPKNNLEMLWLWGELPQAAKSSSPHKMKESSPLGSRKTPDKMNFQAIHSESSDTFSDQSPTMARGLLIHQSKAQTEMQFVNEEDLESLGAAAPPSPVAEELKAPYPNTAQSSSKTDSPSRKKDKRSRHLGADGVYLDDLTDMDPEVAALYFPKNGDPGGLPKQASDNGARSANQSPQSVGGSGIDSGVESTSDSLRDLPSIAISLCGGLSDHREITKDAFLEQAVSYQQFADNPAIIDDPNLVVKVGNKYYNWTTAAPLLLAMQAFQKPLPKATVESIMRDKMPKKGGRWWFSWRGRNATIKEESKPEQCLTGKGHNTGEQPAQLGLATRIKHESSSSDEEHAAAKPSGSSHLSLLSNVSYKKTLRLTSEQLKSLKLKNGPNDVVFSVTTQYQGTCRCEGTIYLWNWDDKVIISDIDGTITRSDTLGHILPTLGKDWTHQGIAKLYHKVSQNGYKFLYCSARAIGMADMTRGYLHWVNERGTVLPQGPLLLSPSSLFSALHREVIEKKPEKFKVQCLTDIKNLFFPNTEPFYAAFGNRPADVYSYKQVGVSLNRIFTVNPKGELVQEHAKTNISSYVRLCEVVDHVFPLLKRSHSCDFPCSDTFSNFTFWREPLPPFENQDMHSASA
As for B1, the “activity of a Gal4-HNF4α fusion on the UAS-TKLuc luciferase reporter in HepG2 cells with lipin 1 overexpression” value was greater than 3 fold.

Values taken from paper PMC3517414, “Complex Interplay between the Lipin 1 and the Hepatocyte Nuclear Factor 4 α (HNF4α) Pathways to Regulate Liver Lipid Metabolism” (PLoS ONE, 2012).
